# Experimental data as given in patent publication US7329410.
# Target: Mouse MHC Class I (mouse B6 class I antigens; D^b or K^b molecules on the surface of RMA-S cells) (mouse)
# Assay: binding of 9mer peptide to mouse B6 (H-2^b) class I antigens; RMA-S cell assay as for Table XLVII
row,Binding Affinity to Mouse MHC Class I [%],Binder
1,2,SQASSGQAR [WT1 peptide P118-126 …]
2,1,PNAPYLPSC [WT1 peptide P129-137 …]
3,1,ASSGQARMF [WT1 peptide P120-128 …]
4,1,QARMFPNAP [WT1 peptide P124-132 …]
5,1,SSGQARMFP [WT1 peptide P121-129 …]
6,79,NAPYLPSCL [WT1 peptide P130-138 …]
7,1,ARMFPNAPY [WT1 peptide P125-133 …]
8,2,PSQASSGQA [WT1 peptide P117-125 …]
9,1,FPNAPYLPS [WT1 peptide P128-136 …]
10,1,APYLPSCLE [WT1 peptide P131-139 …]
11,2,MFPNAPYLP [WT1 peptide P127-135 …]
12,2,QASSGQARM [WT1 peptide P119-127 …]

# Target: Mouse MHC Class I (mouse B6 class I antigens; D^b or K^b molecules on the surface of RMA-S cells) (mouse)
# Assay: RMA-S cells incubated with peptide 25 ug/ml, stained with FITC anti-D^b or anti-K^b, flow cytometry; increase in MFI over medium alone
row,Binding Affinity to Mouse MHC Class I (percent increase of D^b or K^b on RMA-S cells) [%],Binder
1,1.2,QMTSQLECM [WT1 peptide p228-236 …]
2,5.8,NLYQMTSQL [WT1 peptide p225-233 …]
3,2.2,ALLPAVPSL [WT1 peptide human p10-18 …]
4,1.2,GCNKRYFKL [WT1 peptide p329-337 …]
5,33.6,CMTWNQMNL [WT1 peptide p235-243 …]
6,1,NQMNLGATL [WT1 peptide p239-247 …]
7,0.8,YSSDNLYQM [WT1 peptide p221-229 …]
8,52,SCLESQPAI [WT1 peptide human p136-144 …]
